Assay results reported in doi:10.1101/2020.09.27.316166.
Where two headings read alike, the source gives them in different places.

Experiments:
[1] = target: T1, FL-hcGAS (human cyclic GMP-AMP synthase) (human, UniProt Q8N884 1-522); test: phase separation microscopy
[2] = target: T1, FL-hcGAS (human cyclic GMP-AMP synthase); test: phase separation microscopy; remark: listed apart in the source

T1 sequence (Q8N884 whole entry): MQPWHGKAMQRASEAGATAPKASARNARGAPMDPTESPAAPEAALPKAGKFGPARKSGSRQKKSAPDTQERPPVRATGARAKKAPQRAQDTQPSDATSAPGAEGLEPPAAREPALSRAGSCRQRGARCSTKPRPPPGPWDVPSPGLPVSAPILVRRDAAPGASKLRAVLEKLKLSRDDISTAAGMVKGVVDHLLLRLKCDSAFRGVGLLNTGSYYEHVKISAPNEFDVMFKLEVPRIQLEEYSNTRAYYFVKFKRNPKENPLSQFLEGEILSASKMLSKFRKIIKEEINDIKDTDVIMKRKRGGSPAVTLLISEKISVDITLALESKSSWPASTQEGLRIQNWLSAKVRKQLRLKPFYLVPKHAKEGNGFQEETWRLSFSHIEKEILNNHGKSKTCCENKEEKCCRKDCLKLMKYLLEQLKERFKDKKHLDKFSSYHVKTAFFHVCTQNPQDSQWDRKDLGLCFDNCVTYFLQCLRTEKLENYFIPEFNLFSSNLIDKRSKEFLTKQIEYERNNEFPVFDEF

| Binder | binding result [1] | binding result [2] |
| --- | --- | --- |
| AGAGAGAGAGAGAGAGAGAGAGAGAGAGAGAGAGAGAGAGAGAGAGAG (ssDNA) [48 nt ssDNA (AG repeat)] | binds |  |
| ISD (interferon stimulatory DNA, 45 bp) (dsDNA) DNA 1: TACAGATCTACTAGTGATCTATGACTGATCTGTACATGATCTACA DNA 2: TGTAGATCATGTACAGATCAGTCATAGATCACTAGTAGATCTGTA |  | binds |
